The values that follow come from the nanobody polyreactivity screen of Harvey et al. (2022).

The nature of the data set: yeast display, Sf9 membrane polyspecificity reagent, FACS + sequencing; frameworks hold sequencing errors. A digest of the protocol:
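Nanobodies came from a synthetic yeast display library in Saccharomyces cerevisiae BJ5465, induced with galactose for 36–48 hours and stained for 1 hour at 4 °C with 10% biotinylated, detergent-solubilized Sf9 membrane reagent. Cells were enriched on streptavidin microbeads and then FACS-sorted, with low and high (top ~1%) gates set on anti-HA fluorescence for expression and streptavidin fluorescence for reagent binding. Each polyreactivity label reflects the gate a clone came from. Genes were amplified by colony PCR, sequenced by MiSeq 2 × 250 and filtered by CDR length.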
For the sequence “QVQLVESGGGLVQAGGSLRLSCAASGRIFTRYAMGWYREAPGKERELVAAIRIGDSTNYADSVKGRFTISRDNAKNTVYLQMNSLKPEDTAVYDCAAYLPRRRYYYWGQGTQVTVSS”, the “polyreactivity (PSR sort gate)” value is reported as “high polyreactivity”. As to “QVQLVESGGGLVQAGGSLRLSCAASGRIFTRYAMGWYRQAPGKERELVAVITRSGGSTYYADSVKGRFTISRDNAKNNVDLQMNSLKPEDTAVYYCAAKYYGEMYYWGQGTQVTVSS”, the “polyreactivity (PSR sort gate)” value was “low polyreactivity”. Take “QVQLVESGGGLVQAGGSLRLSCAASGRIFTSNAMGWYRLAPGKERELVAAISSSSGSTYYADSVKGRFTISRDNAKNTVYLQMNSLKPEDTAVYYCAARTWRVSGTYKYDYWGQGTQVTVSS”: the “polyreactivity (PSR sort gate)” value is on record as “low polyreactivity”. Regarding “QVQLVESGGGLVQAGGSLRLSCAASGRIFTSYVMGWYRQAPGKERELVAAITWGGSTKYADSVKGRFTISRVNAKNTVYLQMNSLKPEDTAVYYCAADGGEYYKGFFAVPYGYWGQGTQVTVSS”, the “polyreactivity (PSR sort gate)” value is given as “low polyreactivity”. As for “QVQLVESGGGLVQAGGSLRLSCAASGRIFTTYAMGWYRQAPGKEMELVAAIDYSDGSTYYADSVKGRFTISRDNAKNTVYLQMNSLNPEDTAVYYCAADGTYVWGSEEGNYWGQGTQVTVSS”, the “polyreactivity (PSR sort gate)” value is recorded as “low polyreactivity”. For the sequence “QVQLVESGGGLVQAGGSLRLSCAASGRIFTVNAMGWYRQAPGKERELVASITGRGTRTYYADSVKGRFTISRDNAKNTVYLQMNSLKPEDTAVYYCAAAVARVKYDSKGYYWGQGTQVTVSS”, the “polyreactivity (PSR sort gate)” value is given as “high polyreactivity”. “QVQLVESGGGLVQAGGSLRLSCAASGRIFTVYALGWSRQAPGKERELVAAISRGRSTYADSVKGRFTISRDNAKNTVYLQLNSLKPEDTGVYYCAAVNFRKGEDYWGQGTQVTVSS”: the “polyreactivity (PSR sort gate)” value is on record as “high polyreactivity”.

For the sequence “QVQLVESGGGLVQAGGSLRLSCAASGRIFTVYGMGWYRQAPGKERELVAAISWSGGGTYYADSVKGRFTISRDNAKNTVYLHMNSLKPEDTAVYYCNADRQYTWSLVFFSSDYDYWGQGTQVTVSS”, the “polyreactivity (PSR sort gate)” value is reported as “low polyreactivity”. Regarding “QVQLVESGGGLVQAGGSLRLSCAASGRIFTWNARGWYRQAPGKERELVARISSGTRTNYADSVKGRFTISRDNAKNTVYLQMYSLKPEDTAVYYCAAAAKRTDAYHNRRYYWGQGTQVTVSS”, the “polyreactivity (PSR sort gate)” value is reported as “high polyreactivity”. Regarding “QVQLVESGGGLVQAGGSLRLSCAASGRIFTWYAMGWYRQAPGKERELVAVISSGGSTYYADSVKGRFTISRDNAKNTVYLQMNSLKPEDTAVYYCAARRSYYGRSYYYWGQGTQVTVSS”, the “polyreactivity (PSR sort gate)” value was “high polyreactivity”. For “QVQLVESGGGLVQAGGSLRLSCAASGRIFTYNAMGWYIQAPGKERELVAAISSSVGSTYYADSVKGRFTISRDNAKNTVYLQMNSLKPEDTAVYYCAAYSYRNLRFYYWGQGTQVTVSS”, the “polyreactivity (PSR sort gate)” value is listed as “high polyreactivity”. With “QVQLVESGGGLVQAGGSLRLSCAASGRIFTYNARGWYRQAPGKERELVAAITYRGSSTYYADSVKGRFTISRDIAKNTVYLQMNSLKAEDTAVYYCAAVFSGFYYAYDYWGQGTQVTVSS” the entry was “high polyreactivity”; with “QVQLVESGGGLVQAGGSLRLSCAASGRIFTYNTMGWYRQATGKEREFVASITYSGSSTYYADSVKGRFTISRDNAKNTVYLQMNSLKPEDTAVYYCATRYGYSDGDYWGQRTQVTVSS”, “low polyreactivity”; with “QVQLVESGGGLVQAGGSLRLSCAASGRIFTYYAMGWYRQAPGKERELVAAINGRGGRTYYADSVKGRFTISRDNAKNTVYLQMNSLKPEDTAVYYCAARGYAPDTYGYWGQGTQVTVSS”, “high polyreactivity”. Regarding “QVQLVESGGGLVQAGGSLRLSCAASGRIFTYYGMGWYRQARGKERELVAAISSSGDSTFYADSVKGRFTISRDNGKNTVYLQMNSLKPEDTAVYYCAADYYYVWYDYWGQGTQVTVSS”, the “polyreactivity (PSR sort gate)” value is “low polyreactivity”. Turning to “QVQLVESGGGLVQAGGSLRLSCAASGRIFTYYTMGWYRRAPGKEREFVAAISWSGTSTYYADSVKGRFTISRDNAKNTVYLQMNSLKPEETAVFNCAARNWYSRYDYWGQGTQVTVSS”, the “polyreactivity (PSR sort gate)” value is recorded as “high polyreactivity”. Regarding “QVQLVESGGGLVQAGGSLRLSCAASGRIFVASAMGWYRQAPGKERELVAAISKTGGSTYYADSVKGRFTISRDNAKKTVYLQMNSLKPEDTAVYYCAADVYRRFDYWGQGTQVTVSS”, the “polyreactivity (PSR sort gate)” value was “low polyreactivity”. Turning to “QVQLVESGGGLVQAGGSLRLSCAASGRIFVAYTRGWYRQAPGKERELVAAITWNSGSSTYYADSVKGRFTISGDNAKNTVYLQMNSLKPEDTAVYYCAARSAGRYWNYYWGQGTQVTVSS”, the “polyreactivity (PSR sort gate)” value is recorded as “high polyreactivity”. With “QVQLVESGGGLVQAGGSLRLSCAASGRIFVCYAMGLYRQAPGKERELVAAISSSCGSTYYADSVKGRFTISRDKAKNTVYLQMNSLKPEDTAVYYCNTHQRSRMDYWVQGTQVTVSS”, the “polyreactivity (PSR sort gate)” value is reported as “low polyreactivity”.

Consider “QVQLVESGGGLVQAGGSLRLSCAASGRIFVCYAMGWYRQAPVKERELLAAITCRGGSTYYADSVKGRFTISRDNAKNTVYLQMNSLKPEDTEVYYCAAVGHSGGRRYDYWGQGTQVTVSS”, for which the “polyreactivity (PSR sort gate)” value is “high polyreactivity”.

Take “QVQLVESGGGLVQAGGSLRLSCAASGRIFVDYAMGWYRQAPGKERELVAAIRSSGGSTYYADSVKGRFTISRDNAKNTVYLQMNSLKPEDTAVYYCNTPKYLRASSGYNYWGQGTQVTVSS”: the “polyreactivity (PSR sort gate)” value is on record as “high polyreactivity”. On to “QVQLVESGGGLVQAGGSLRLSCAASGRIFVDYDMGWYRQAPGKERELVAAISFDGGNTYADSVKGRFTISRDNAKNTVYLQMNSLKPEDTAVYYCARDDTSPGYGDQSSNAAYYYWGQGTQVTVSS”, for which the “polyreactivity (PSR sort gate)” value is “low polyreactivity”. For the sequence “QVQLVESGGGLVQAGGSLRLSCAASGRIFVFYAMGWYRQAPGKERELVAAISKSVGPTYYADSVKGRFTISRDNAKNTVYLQMNSLKPEDTAVYYCASDVDRFFTYKYDYWGQGTQVTVSS”, the “polyreactivity (PSR sort gate)” value was “low polyreactivity”. Take “QVQLVESGGGLVQAGGSLRLSCAASGRIFVGNALGWYRKAPGKERELVAAISGSGDSTYYADSVKGRFTISRDNAKNTVYLQMNSLKPEDTAVYYCNVDYDFVIYYYWYYPGYDYWGQGTQVTVSS”: the “polyreactivity (PSR sort gate)” value is “low polyreactivity”.

For “QVQLVESGGGLVQAGGSLRLSCAASGRIFVGYAMGWYRQAPGKERELVAGIRYSGGSTYYADSVKGRFTISRDNAKNTVYLQMNSLKPEDTAVYYCANQVWHYAGRPNYKYDYWGQGTQVTVSS”, the “polyreactivity (PSR sort gate)” value is listed as “low polyreactivity”. Regarding “QVQLVESGGGLVQAGGSLRLSCAASGRIFVGYTMGWYRQAPGKERELVAAISSRGGRTNYADSVKGRFTISRDNAKNTVYLQMNSLKPEDTAVYYCATRLYPHQYYYWGQGSQVTVSS”, the “polyreactivity (PSR sort gate)” value is on record as “high polyreactivity”. With “QVQLVESGGGLVQAGGSLRLSCAASGRIFVGYTMGWYRQAPGKERELVASISWSGASTYYADSVKGRFTISRDNAKNTVYLQMNSLKPEDTAVYYCAARYYKYYNSYDYWGQGTQVTVSS”, the “polyreactivity (PSR sort gate)” value is given as “high polyreactivity”. For “QVQLVESGGGLVQAGGSLRLSCAASGRIFVINAMGWYRQAPGKERELVAAIRSGGSTNYADSVKGRFTISRDNAKNTVYLQMNSLKPEDTAVNYCAARNSGRRSKAYDFKMNYWGQGTQVTVSS”, the “polyreactivity (PSR sort gate)” value was “high polyreactivity”.

Turning to “QVQLVESGGGLVQAGGSLRLSCAASGRIFVINDMGWYRKATGKERELVAAITWGSSTYADSVKGRFTISRDNAKNTVYLQMNSLKPEDTAVYYCARDVYPSTWEYDYWGQGTQVTVSS”, the “polyreactivity (PSR sort gate)” value is listed as “low polyreactivity”. With “QVQLVESGGGLVQAGGSLRLSCAASGRIFVINTMGWYRQAPGKERELVAAISRGGSTNYADSVKGRFTISRDNAKNTVYLQMNSLKPEDTAVYYCAATGYILFAGGGYDYWGQGTQVTVSS”, the “polyreactivity (PSR sort gate)” value is reported as “low polyreactivity”.

Take “QVQLVESGGGLVQAGGSLRLSCAASGRIFVKNAMGWYRQAPGKERELVAAISSGSSTNYADSVKGRFTISRDNAKNTVYLQMNSLKPEDTAVYYCAARQAQWDDYWGQGTQVTVSS”: the “polyreactivity (PSR sort gate)” value is listed as “high polyreactivity”.

“QVQLVESGGGLVQAGGSLRLSCAASGRIFVKSAMGWYRPAPGQERELVAAITSDGSTSYADSVKGRFTISRDNAKNTVYLQMNSQKPEDTAVYYCAKDFFEHSPVSHTYSSSKYDYWGQGTQVTVSS”: the “polyreactivity (PSR sort gate)” value is given as “low polyreactivity”. For “QVQLVESGGGLVQAGGSLRLSCAASGRIFVKYAMGWYRQAPGKERELVAAITKSGSSTYYADSVKGRFTISRDNAKNTVYLQMNSLKPEDTAVYYCAALTISRSRTGYYWGQGTQVTVSS”, the “polyreactivity (PSR sort gate)” value is recorded as “low polyreactivity”. As to “QVQLVESGGGLVQAGGSLRLSCAASGRIFVLYAMGWYRQAPGKERELVAAISTSGGSTYYADSVKGRFTISRDNAKNTVYLQMNSLKPEDTAVYYCAADRSARFLFIQYYPYGMDYWGQGTQVTVSS”, the “polyreactivity (PSR sort gate)” value is recorded as “high polyreactivity”. For the sequence “QVQLVESGGGLVQAGGSLRLSCAASGRIFVLYAMGWYRQAPGKERELVADITVSGGSTYYADSVKGRFTISRDNAKNTVYLQMNSLKPEDTAVYYCAADQRYWKFDSWGQGTQVTVSS”, the “polyreactivity (PSR sort gate)” value was “high polyreactivity”. On to “QVQLVESGGGLVQAGGSLRLSCAASGRIFVPNAMGWYRQAPGKERELVARISRSDGSTYYADSVKGRFTISRDNAKNTVYLQMNSLKPEDTAVYYCAASTTPRWWSFKYYYWGQGTEVTVSS”, for which the “polyreactivity (PSR sort gate)” value is reported as “high polyreactivity”.

In the case of “QVQLVESGGGLVQAGGSLRLSCAASGRIFVPYAMGWSRQAPGKERELVAAISWRGGSTNYADSVKGRFTISRDNAKNTVYLQMNSLKPEDTAVYYCAAVPVRYRYSYGYYYWGQGTQVTVSS”, the “polyreactivity (PSR sort gate)” value was “high polyreactivity”. Consider “QVQLVESGGGLVQAGGSLRLSCAASGRIFVPYAMGWYRQAPGKERELVAAITWRGGSTYYADSVKGRFTISRDNAKNTVYLQMNSLKPEDTAVYYCNADEASPWFWFSHLQVGMDYWGQGTQVTVSS”, for which the “polyreactivity (PSR sort gate)” value is given as “low polyreactivity”. With “QVQLVESGGGLVQAGGSLRLSCAASGRIFVPYTMGWYRQAPGKERELVAAISRSGGSTYYADSVKGRFTISRDNAKNTVYLQMNSLKPEDTAVYYCAARATNVYSKMDYWGQGTQVTVSS” the entry was “high polyreactivity”.

Take “QVQLVESGGGLVQAGGSLRLSCAASGRIFVPYTMGWYRQAPGKEWELVAAISRSGGSTYYADSVKGRFTISRDNAKNTVYLQMNSLKPEDTAVYYCAARATNVYSKMDSWGQGTQVTVSS”: the “polyreactivity (PSR sort gate)” value is recorded as “high polyreactivity”. The same measure for “QVQLVESGGGLVQAGGSLRLSCAASGRIFVRNAMGWYRQAPGKERELVAAITRTGASTYYADSVKGRFTISRDNAKNTVYLQMNSLKPEDTAVYYCAAVWGWPYWVYRYDYWGQGTQVTVSS”: “high polyreactivity”.
